# Measurements from publication doi:10.1101/2025.03.21.644400.
# Target: MIYEI
# Assay: crystal structure
substance,measurement,value
MIYEI,stoichiometry N,2
